What all share (assay): cell_activity; CHO iGFFP reporter
The target of one data set is T1, LOX 3-4m.765 (artificial (I-CreI derived)).
T1 chain: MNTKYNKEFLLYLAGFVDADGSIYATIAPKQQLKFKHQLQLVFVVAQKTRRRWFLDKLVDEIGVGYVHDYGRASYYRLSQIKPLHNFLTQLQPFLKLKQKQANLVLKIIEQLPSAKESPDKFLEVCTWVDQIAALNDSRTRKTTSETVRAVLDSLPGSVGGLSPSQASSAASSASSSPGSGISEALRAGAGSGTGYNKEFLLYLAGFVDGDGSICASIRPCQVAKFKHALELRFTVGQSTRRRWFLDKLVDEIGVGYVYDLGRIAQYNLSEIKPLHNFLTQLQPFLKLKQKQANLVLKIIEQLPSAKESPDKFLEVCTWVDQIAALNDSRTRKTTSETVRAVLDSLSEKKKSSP
An excerpt:
(§1) A CHO cell reporter system (see WO/2012/167192, FIG. 3) was used to determine whether the engineered meganucleases generated in these studies could recognize and cleave the modified LOX 3-4 recognition sequences in Table 87. To perform the assay, a pair of CHO cell reporter lines were produced, which carried a non-functional Green Fluorescent Protein (GFP) gene expression cassette integrated into the genome of the cell. The GFP gene in each cell line was interrupted by a pair of recognition sequences such that intracellular cleavage of either recognition sequence by a meganuclease would stimulate a homologous recombination event resulting in a functional GFP gene. In both cell lines, one of the recognition sequences was derived from the LOX 3-4 recognition sequence (i.e., those sequences disclosed in Table 87), and the second recognition sequence was specifically recognized by a control meganuclease called “CHO 23/24.” CHO reporter cells comprising a recognition sequence derived from the LOX 3-4 recognition sequence and the CHO 23/24 recognition sequence are referred to herein as “test cells.”
(§2) Novel engineered meganucleases derived from the LOX 3-4x.109 meganuclease were prepared by making amino acid substitutions at one or more positions in the first subunit and one or more positions in the second subunit. These engineered meganucleases were then evaluated for cleavage of the LOX 3-4 recognition sequence modified to have an ACAA center sequence (SEQ ID NO: 9) in the CHO reporter assay according to Example 1.

A further data set addresses T2, LOX 3-4m.684 (artificial (I-CreI derived)).
T2 chain: T1 chain with R139K, R263T, A265T
Excerpt: as §1, §2

For another data set, the target named is T3, LOX 3-4m.750 (artificial (I-CreI derived)).
T3 chain: T1 chain with R50C, R139K, S239A, A265S
Excerpt: as §1, §2

In a further data set the target is T4, LOX 3-4m.1293 (artificial (I-CreI derived)).
T4 chain: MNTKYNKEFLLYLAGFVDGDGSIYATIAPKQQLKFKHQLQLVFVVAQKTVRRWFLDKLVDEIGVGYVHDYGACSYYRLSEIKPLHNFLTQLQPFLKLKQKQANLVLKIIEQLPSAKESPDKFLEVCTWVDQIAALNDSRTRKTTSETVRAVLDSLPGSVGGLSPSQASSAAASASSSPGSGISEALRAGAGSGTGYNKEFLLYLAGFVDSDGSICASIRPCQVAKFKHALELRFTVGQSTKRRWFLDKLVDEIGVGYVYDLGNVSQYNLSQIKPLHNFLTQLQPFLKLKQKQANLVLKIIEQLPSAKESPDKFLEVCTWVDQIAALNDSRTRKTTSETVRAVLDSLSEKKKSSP
Excerpt: as §1
(§3) Novel engineered meganucleases derived from the LOX 3-4x.109 meganuclease were prepared by making amino acid substitutions at one or more positions in the first subunit and one or more positions in the second subunit. These engineered meganucleases were then evaluated for cleavage of the LOX 3-4 recognition sequence modified to have an ATAA center sequence (SEQ ID NO: 157) in the CHO reporter assay according to Example 1.

In a further data set the target is T5, LOX 3-4m.1269 (artificial (I-CreI derived)).
T5 chain: T1 chain with K48H, R72H, A73C, S239T, R263G, A265S
Excerpt: as §1, §3

For a further data set, the target named is T6, LOX 3-4m.1237 (artificial (I-CreI derived)).
T6 chain: T1 chain with K48A, R50I, R139K, S239K, R241E, R263G, I264V, E271Q, R330K
Excerpt: as §1, §3

Another data set deals with T7, LOX 3-4m.1236 (artificial (I-CreI derived)).
T7 chain: T1 chain with K48H, R50T, R139K, S239A, R241K, R263Q, I264V, E271Q
Excerpt: as §1, §3

The target of another data set is T8, LOX 3-4m.1329 (artificial (I-CreI derived)).
T8 chain: T1 chain with K48H, R139K, S239K, R241C, R263G, I264R, A265S, E271Q, R330K
Excerpt: as §1
(§4) Novel engineered meganucleases derived from the LOX 3-4x.109 meganuclease were prepared by making amino acid substitutions at one or more positions in the first subunit and one or more positions in the second subunit. These engineered meganucleases were then evaluated for cleavage of the LOX 3-4 recognition sequence modified to have an ATAG center sequence (SEQ ID NO: 184) in the CHO reporter assay according to Example 1.

In a further data set the target is T9, LOX 3-4m.1345 (artificial (I-CreI derived)).
T9 chain: T1 chain with R72G, R139K, S239K, R241C, R263G, I264R, A265S, E271Q, R330K
Excerpt: as §1, §4

The target in another data set is T10, LOX 3-4m.1415 (artificial (I-CreI derived)).
T10 chain: T1 chain with Q80E, R139K, S239K, R241C, V250A, R263G, I264R, A265S, E271Q
Excerpt: as §1, §4

Another data set concerns the target T11, LOX 3-4m.1353 (artificial (I-CreI derived)).
T11 chain: T1 chain with R139K, K227R, S239K, R241C, V250A, R263S, I264R, A265S, E271Q
Excerpt: as §1, §4

Substitutions are numbered along the chain they refer to.

B1: LOX 3-4 ACAA (dsDNA)
DNA 1: GTATAGCATACAATATACGAAG
DNA 2: CTTCGTATATTGTATGCTATAC
As to B1, the activity was 9.32 % GFP with LOX 3-4m.765, 9.14 % GFP in the data set with LOX 3-4m.684 and 9.32 % GFP with LOX 3-4m.750.

B2: LOX 3-4 ATAA (dsDNA)
DNA 1: GTATAGCATATAATATACGAAG
DNA 2: CTTCGTATATTATATGCTATAC
B2: the activity with LOX 3-4m.1293 amounted to 8 % GFP; with LOX 3-4m.1269, 8.64 % GFP; with LOX 3-4m.1237, 8.13 % GFP; with LOX 3-4m.1236, 9.28 % GFP.

B3: LOX 3-4 ATAG (dsDNA)
DNA 1: GTATAGCATATAGTATACGAAG
DNA 2: CTTCGTATACTATATGCTATAC
For the molecule B3, the activity with LOX 3-4m.1329 came out at 15.5 % GFP; with LOX 3-4m.1345 it was 14 % GFP; with LOX 3-4m.1415 it was 13.1 % GFP; with LOX 3-4m.1353, 15.6 % GFP.

Source of the values: patent US20220195407, “OPTIMIZATION OF ENGINEERED MEGANUCLEASES FOR RECOGNITION SEQUENCES” (Precision BioSciences, Inc., published 2022).
